From US20130261012A1 (published 2013)

Molecular target: S3
Assay: apparent affinity of recombinant chimeric mAb, cell binding

Kd: > 40 nM
B1: FZD10 (receptor)
chain: ISSMDMERPGDGKCQPIEIPMCKDIGYNMTRMPNLMGHENQREAAIQLHEFAPLVEYGCHGHLRFFLCSLYAPMCTEQVSTPIPACRVMCEQARLKCSPIMEQFNFKWPDSLDCRKLPNKNDPNYLCMEAPNNGSDEPTRGSGLFPPLFRPQRPHSAQEHPLKDGGPGRGGCDNPGKFHHVEKSASCAPLCTPGVDVYWSREDKRFAVVWLAIWAVLCFFSSAFTVLTFLIDPARFRYPERPIIFLSMCYCVYSVGYLIRLFAGAESIACDRDSGQLYVIQEGLESTGCTLVFLVLYYFGMASSLWWVVLTLTWFLAAGKKWGHEAIEANSSYFHLAAWAIPAVKTILILVMRRVAGDELTGVCYVGSMDVNALTGFVLIPLACYLVIGTSFILSGFVALFHIRRVMKTGGENTDKLEKLMVRIGLFSVLYTVPATCVIACYFYERLNMDYWKILAAQHKCKMNNQTKTLDCLMAASIPAVEIFMVKIFMLLVVGITSGMWIWTSKTLQSWQQVCSRRLKKKSRRKPASVITSGGIYKKAQHPQKTHHGKYEIPAQSPTCV
